The values below come from patent US20210155689A1 (SHANGHAI PHARMAEXPLORER, published 2021).

For assay [1], the target named is T1, human LAG-3 protein with hFc tag (hLAG-3-hFc protein) (human, UniProt P18627 23-450).
T1 construct: also called immunogen 1; LAG-3 extracellular domain protein; not shown: human IgG Fc fragment (hFc) of the pCpC vector
T1 sequence: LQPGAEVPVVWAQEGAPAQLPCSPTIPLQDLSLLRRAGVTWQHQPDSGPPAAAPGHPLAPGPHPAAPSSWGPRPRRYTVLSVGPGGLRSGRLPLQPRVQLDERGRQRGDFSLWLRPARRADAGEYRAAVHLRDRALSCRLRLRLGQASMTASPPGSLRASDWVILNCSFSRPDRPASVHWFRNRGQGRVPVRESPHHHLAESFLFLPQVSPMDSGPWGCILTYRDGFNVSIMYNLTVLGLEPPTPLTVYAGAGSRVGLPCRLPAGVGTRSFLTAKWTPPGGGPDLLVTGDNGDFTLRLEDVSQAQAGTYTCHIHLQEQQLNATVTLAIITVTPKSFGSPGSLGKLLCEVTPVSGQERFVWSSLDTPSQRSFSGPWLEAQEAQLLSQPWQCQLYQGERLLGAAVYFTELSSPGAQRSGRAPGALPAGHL
The experiment in a line: FACS, blocks LAG-3-hFc binding to MHC II on Raji; 22.222 nM. The procedure:
(§1) The FACS reaction plate incubating the Raji cells was centrifuged to discard the supernatant. The above mixture was added as 100 μl per well to Raji cells and incubated on ice for 1-2 hours. The plate was washed twice with blocking solution (PBS, 2% fetal bovine serum) by centrifugation, added with 100 microliters of fluorescent (Alexa 488)-labeled secondary antibodies per well, and incubated on ice for 1.0 hours. The plate was washed 2-3 times by centrifugation with blocking solution (PBS, 2% fetal bovine serum), added with 100 microliters of PBS per well to suspend cells, and detected using FACS (FACS Calibur, BD) and the results were analyzed. Wherein, the IgG control was murine IgG, and the data in the table is the inhibition rate (%).

For assay [2], the target named is T1, human LAG-3 protein with hFc tag …. The experiment in a line: FACS, blocks LAG-3-hFc binding to MHC II on Raji; 2.469 nM. The procedure:
as §1
On the technique in general: In flow cytometry, cells or beads pass a laser one at a time.

Assay [3] addresses T2, mouse LAG-3 protein with hFc tag (mLAG-3-hFc protein) (mouse; human, UniProt Q61790 24-442).
T2 construct: Made in HEK293 cells; also called mouse LAG-3 extracellular domain protein; not shown: human IgG Fc fragment (hFc) of the pCpC vector
T2 sequence: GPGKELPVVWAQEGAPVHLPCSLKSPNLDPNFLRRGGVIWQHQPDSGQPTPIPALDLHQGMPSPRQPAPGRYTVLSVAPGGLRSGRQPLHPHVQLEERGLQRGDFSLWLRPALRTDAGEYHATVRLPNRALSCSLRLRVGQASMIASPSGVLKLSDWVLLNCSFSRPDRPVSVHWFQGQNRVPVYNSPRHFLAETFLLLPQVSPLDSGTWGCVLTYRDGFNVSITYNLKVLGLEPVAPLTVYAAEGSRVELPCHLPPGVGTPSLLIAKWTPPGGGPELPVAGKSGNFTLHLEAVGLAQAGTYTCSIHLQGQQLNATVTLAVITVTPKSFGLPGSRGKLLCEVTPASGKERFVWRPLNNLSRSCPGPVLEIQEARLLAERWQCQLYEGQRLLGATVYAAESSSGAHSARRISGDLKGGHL
In words: ELISA, mLAG-3-hFc coated; 0.0067 nM. The procedure:
The plate was sealed with plastic film and incubated overnight at 4° C. The plate was washed 2 times with the plate washing solution (PBS+0.01% Tween20) on the next day, and added with the blocking solution (PBS+0.01% Tween20+1% BSA) and blocked at room temperature for 1-2 hours. The blocking solution was poured out, and the plate was added with 50-100 μl of the antibody sample to be tested to each well, incubated at 37° C. for 1-2 hours, and washed 2-3 times with a plate washing solution (PBS+0.01% Tween20). HRP (horseradish peroxidase) labeled secondary antibody was added, and the plate was incubated at 37° C. for 1-2 hours, and washed 2-3 times with a plate washing solution (PBS+0.01% Tween20). 100 μl of TMB substrate was added to each well. After incubated at room temperature for 15-30 minutes, the plate was added with 100 μl of stop solution (1.0N HCl) to each well.

B1: 405B8H3 (mouse antibody purified from hybridoma) (antibody, V domains shown)
VH: QVQLQQSGAELVRPGASVTLSCKASGYTFTDYEMHWVKQTPVHGLEWIGATDPETGNSAYNQKFKGKAIMTADKSSSTAYMELRSLTSEDSAVYYCISTGWNDWGQGTSLTVSS
VL: DIKMTQSPSSMYASLGERVTITCKASQDINSYLSWFQQKPGKSPKTLIYRADRLLDGVPSRFSGSGSGQDYSLTISSLEYGDMGIYYCLQYDEFPYTFGGGTKLEIK
notes: also called mAb103-405B8H3; 405B81-13
Take B1: the entries for the “Inhibition rate (%)” value in assay [1] and in assay [2] were 93.6% and 41.9%, respectively.

B2: 105F1E10 (mouse antibody purified from hybridoma) (antibody, V domains shown)
VH: EVQLQQSGPELVKPGASVKMSCRASGYTFTDFKMHWMKQSHGKSLEWIGYIAPNNGGTAYNQKFRGKATLTVNESSNTAYMELRSLTSEDSAVYYCVDWDDVDYWGQGTTLTVSS
VL: DIKMTQSPSSMYASLGERVTITCKASQDINSYLSWFQQKSGKSPKTLIYRANRLVDGVPSRFSGSGSGQDYSLTISSLEYEDMGIYYCLQYVEFPLTFGAGTKLELK
notes: also called mAb009-105F1E10
Consider B2, for which the “Inhibition rate (%)” value was found to be 93.6% in assay [1] and 27.8% in assay [2].

B3: 405B8H3 (LAG-3 mouse-human chimeric antibody) (antibody, V domains shown)
VH: QVQLQQSGAELVRPGASVTLSCKASGYTFTDYEMHWVKQTPVHGLEWIGATDPETGNSAYNQKFKGKAIMTADKSSSTAYMELRSLTSEDSAVYYCISTGWNDWGQGTSLTVSS
VL: DIKMTQSPSSMYASLGERVTITCKASQDINSYLSWFQQKPGKSPKTLIYRADRLLDGVPSRFSGSGSGQDYSLTISSLEYGDMGIYYCLQYDEFPYTFGGGTKLEIK
notes: also called mouse-human chimeric antibody 405B8H3
Regarding B3, in assay [3], the OD450 is 0.08 OD450.

B4: 105F1E10 (LAG-3 mouse-human chimeric antibody) (antibody, V domains shown)
VH: EVQLQQSGPELVKPGASVKMSCRASGYTFTDFKMHWMKQSHGKSLEWIGYIAPNNGGTAYNQKFRGKATLTVNESSNTAYMELRSLTSEDSAVYYCVDWDDVDYWGQGTTLTVSS
VL: DIKMTQSPSSMYASLGERVTITCKASQDINSYLSWFQQKSGKSPKTLIYRANRLVDGVPSRFSGSGSGQDYSLTISSLEYEDMGIYYCLQYVEFPLTFGAGTKLELK
Molecule B4 returned an OD450 in assay [3] of 0.09 OD450.

B5: 409D4E10 (LAG-3 mouse-human chimeric antibody) (antibody, V domains shown)
VH: QVQLQQSGAELVRPGASVTLSCKASGNTFTDYEMHWVKQTPVHGLEWIGATDPETDNTAYNQKFKGKAILTTDKSSSTAYMELRSLTSEDSAVYYCITSGWNDWGQGTSLTVSS
VL: DIKMTQSPSSMYASLGERVTITCKASQDINSYLSWFQQKPGKSPKTLIYRANRLLDGVPSRFSGSGSGQDYSLTISSLEYEDMGIYYCLQYNEFPYTFGGGTKLEIK
Consider B5, for which the OD450 in assay [3] is 0.09 OD450.

B6: 409B11E12 (LAG-3 mouse-human chimeric antibody) (antibody, V domains shown)
VH: QVQLQQSGAELVRPGASVTLSCKASGYTFTDYEMHWVKQTTVHGLEWIGATDPETSYSAYNQKFKGKAILTADKSSSTAYMELRSLTSEDSAVYYCIATGWNDWGQGTSLTVSS
VL: DLKMTQSPSSMYASLGERVTITCKASQDINSYLSWFQQKPGKSPKTLIYRANRLLDGVPSRFSGSGSGQDYSLTISSLEYEDMGIYYCLQYDEFPYTFGGGTKLEIK
Consider B6, for which, in assay [3], the OD450 was 0.07 OD450.

B7: 409B11E12 (mouse antibody purified from hybridoma) (antibody, V domains shown)
VH: QVQLQQSGAELVRPGASVTLSCKASGYTFTDYEMHWVKQTTVHGLEWIGATDPETSYSAYNQKFKGKAILTADKSSSTAYMELRSLTSEDSAVYYCIATGWNDWGQGTSLTVSS
VL: DLKMTQSPSSMYASLGERVTITCKASQDINSYLSWFQQKPGKSPKTLIYRANRLLDGVPSRFSGSGSGQDYSLTISSLEYEDMGIYYCLQYDEFPYTFGGGTKLEIK
notes: also called mAb104-409B11E12
Turning to B7, the “Inhibition rate (%)” value in assay [1] was determined as 95.3%; in assay [2], 39.6%.

B8: 409D4E10 (mouse antibody purified from hybridoma) (antibody, V domains shown)
VH: QVQLQQSGAELVRPGASVTLSCKASGNTFTDYEMHWVKQTPVHGLEWIGATDPETDNTAYNQKFKGKAILTTDKSSSTAYMELRSLTSEDSAVYYCITSGWNDWGQGTSLTVSS
VL: DIKMTQSPSSMYASLGERVTITCKASQDINSYLSWFQQKPGKSPKTLIYRANRLLDGVPSRFSGSGSGQDYSLTISSLEYEDMGIYYCLQYNEFPYTFGGGTKLEIK
notes: also called mAb112-409D4E10
Consider B8, for which the “Inhibition rate (%)” value in assay [1] was 95.8%; in assay [2] it was 44.7%.

B9: 556F6B8 (mouse antibody purified from hybridoma) (antibody, V domains shown)
VH: RVQLKQSGPGLVQPSQSLSITCTVSGFSLIKYGVHWVRQSPGEGLEWLGVIWRGGITDYNAAFMSRLSITKDNSKSQVFFKMNSLQADDTAIYYCAKWDGPLAMDYWGQGTSVTVSS
VL: DIVMTQSHKFLSTSVGDRVSITCKASQDVGTTVAWYQQKPGQSPKLLIYWASTRHTGVPDRFTGSGSGTDFTLTISNVQSEDLADYFCQQYSSYPYTFGGGTKLEIK
notes: also called mAb123-556F6B8
Turning to B9, the “Inhibition rate (%)” value was 95.6% in assay [1] and 48.1% in assay [2].

B10: 556F6B8 (LAG-3 mouse-human chimeric antibody) (antibody, V domains shown)
VH: RVQLKQSGPGLVQPSQSLSITCTVSGFSLIKYGVHWVRQSPGEGLEWLGVIWRGGITDYNAAFMSRLSITKDNSKSQVFFKMNSLQADDTAIYYCAKWDGPLAMDYWGQGTSVTVSS
VL: DIVMTQSHKFLSTSVGDRVSITCKASQDVGTTVAWYQQKPGQSPKLLIYWASTRHTGVPDRFTGSGSGTDFTLTISNVQSEDLADYFCQQYSSYPYTFGGGTKLEIK
notes: also called 556F8B8
In turn, B10 returned an OD450 in assay [3] of 0.14 OD450.
